Key:
[1] = biological target: bevacizumab (human); experiment: ELISA; pH 5.5; biologic titrated and captured on coated human VEGF165; 1 ug/mL hFcRn-GST added for 1 h at room temperature (100 mM phosphate, 0.15 M NaCl, 4% skimmed milk, 0.05% Tween 20); detected with HRP-conjugated anti-GST
[2] = biological target: aflibercept (human); experiment: as above

recombinant hFcRn-GST, sequence (P55899 whole entry, looked up, tested part not stated): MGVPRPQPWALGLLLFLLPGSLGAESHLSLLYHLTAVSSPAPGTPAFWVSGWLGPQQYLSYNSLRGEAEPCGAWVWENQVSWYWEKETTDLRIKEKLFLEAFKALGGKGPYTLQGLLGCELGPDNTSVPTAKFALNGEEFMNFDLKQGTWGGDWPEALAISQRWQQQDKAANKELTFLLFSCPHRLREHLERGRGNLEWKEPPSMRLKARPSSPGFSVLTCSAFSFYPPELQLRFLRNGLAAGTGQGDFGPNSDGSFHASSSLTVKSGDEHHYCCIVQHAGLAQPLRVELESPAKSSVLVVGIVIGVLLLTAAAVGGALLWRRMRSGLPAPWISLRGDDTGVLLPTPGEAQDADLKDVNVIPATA
bevacizumab (human), sequence (heavy, as listed by the source, chain 1 of 2): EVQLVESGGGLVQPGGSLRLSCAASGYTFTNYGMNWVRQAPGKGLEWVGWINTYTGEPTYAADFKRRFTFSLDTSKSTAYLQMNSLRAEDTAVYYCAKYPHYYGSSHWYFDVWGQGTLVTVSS
bevacizumab (human), sequence (light, as listed by the source, chain 2 of 2): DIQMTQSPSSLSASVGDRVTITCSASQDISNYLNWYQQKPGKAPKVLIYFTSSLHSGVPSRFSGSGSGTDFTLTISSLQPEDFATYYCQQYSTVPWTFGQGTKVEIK

## recombinant hFcRn-GST (from UniProt P55899 24-365) (receptor)
[1]
  reduction of absorbance at D30 (capped syringe) against D0-n: 18.7%
[2]
  reduction of absorbance at D30 (capped syringe) against D0-n: 37.5%

Reference: paper PMC11182194
